Source: patent EP3470428A1 (Numab Innovation AG, dated 2019)
Blank lines part the entries; values can stand above or below the binder they belong to.

What was measured:
[1] = target: human PD-L1 expressed on cells (human, UniProt Q9NZQ7 19-290); assay: cell-based or functional assay
[2] = target: T1, human CD137 expressed on cells (human, UniProt Q07011 24-255); assay: cell-based or functional assay
[3] = target: T1, human CD137 expressed on cells; assay: cell-based or functional assay; remark: listed apart in the source
[4] = target: T1, human CD137 expressed on cells; assay: cell-based or functional assay; remark: listed apart in the source
biotinylated human PD-L1 [5] = target: T2, biotinylated human PD-L1 (human, UniProt Q9NZQ7 19-238, limits assumed, biotinylated); assay: competition ELISA; coated human B7.1 as competitor; biotinylated PD-L1 pre-incubated with inhibitor
T2 construct: also called biotinylated PD-L1

biotinylated human PD-L1 [6] = target: T2, biotinylated human PD-L1; assay: competition ELISA; coated human PD-1 as competitor; biotinylated human PD-L1 pre-incubated with inhibitor
[7] = target: T1, human CD137 expressed on cells; assay: cell-based or functional assay; remark: listed apart in the source
[8] = target: T1, human CD137 expressed on cells; assay: cell-based or functional assay; remark: listed apart in the source
[9] = target: T1, human CD137 expressed on cells; assay: cell-based or functional assay; remark: listed apart in the source
[10] = target: T1, human CD137 expressed on cells; assay: cell-based or functional assay; remark: listed apart in the source
[11] = target: human PD-L1-Fc chimeric protein (human, UniProt Q9NZQ7 19-239); assay: SPR (Biacore T200); PD-L1-Fc captured by anti-human Fc
human serum albumin = target: T3, human serum albumin (human, UniProt P02768 25-609); assay: SPR (Biacore T200); SA amine-coupled; pH 5.5
T3 construct: Amine-coupled to a CM5 chip; assay at pH 5.5; also called HSA; human SA

IC50 (ng/ml), neutralization of PD-L1/PD-1 interaction, NFAT-luciferase reporter gene assay [1]: 133 ng/mL
EC50 in ng/ml, CD137 activation, NFkB-luciferase Jurkat reporter assay, PD-L1 expressing CHO cells, 6h [2]: 56.4 ng/mL
EC50 in ng/ml, CD137 activation, NFkB-luciferase Jurkat reporter assay, PD-L1 expressing CHO cells, 24h [3]: 80.8 ng/mL
EC50 in ng/ml, CD137 activation, NFkB-luciferase Jurkat reporter assay, HCC827 with IFNy stimulation, 24h [4]: 17.5 ng/mL
EC50 in ng/ml, CD137 activation, NFkB-luciferase Jurkat reporter assay, HCC827 without IFNy stimulation, 24h [4]: 13.6 ng/mL
IC50 (biotinylated human PD-L1 [5]): 0.0174 µg/mL
IC50 (biotinylated human PD-L1 [6]): 0.00567 µg/mL
B1: PRO1060: 33-03-G02 IgG1 HC with 38_02_A04 sc01 scFV, PD-L1/CD137(scFv) silent Morrison (bispecific antibody)
light: DIQMTQSPSSLSASVGDRVTITCQASQSINDYLAWYQQKPGKAPKLLIYKASTLASGVPSRFSGSGSGTDFTLTISSLQPEDFATYYCQQGYIITDIDNVFGTGTKVTVLGTVAAPSVFIFPPSDEQLKSGTASVVCLLNNFYPREAKVQWKVDNALQSGNSQESVTEQDSKDSTYSLSSTLTLSKADYEKHKVYACEVTHQGLSSPVTKSFNRGEC
heavy: QVQLQESGPGLVKPSETLSLTCKVSGFSFSSGYDMCWIRQPPGKGLEWIGCVVAGSVDITYYASWAKGRVTISVDSSKNQFSLKLSSVTAADTAVYYCARKDAYSDAFNLWGQGTLVTVSSASTKGPSVFPLAPSSKSTSGGTAALGCLVKDYFPEPVTVSWNSGALTSGVHTFPAVLQSSGLYSLSSVVTVPSSSLGTQTYICNVNHKPSNTKVDKRVEPKSCDKTHTCPPCPAPEAAGGPSVFLFPPKPKDTLMISRTPEVTCVVVDVSHEDPEVKFNWYVDGVEVHNAKTKPREEQYNSTYRVVSVLTVLHQDWLNGKEYKCKVSNKALGAPIEKTISKAKGQPREPQVYTLPPSREEMTKNQVSLTCLVKGFYPSDIAVEWESNGQPENNYKTTPPVLDSDGSFFLYSKLTVDKSRWQQGNVFSCSVMHEALHNHYTQKSLSLSPGKGGGGSGGGGSIQMTQSPSSLSASVGDRVTITCQASQSINNVLAWYQQKPGKAPKLLIYRASTLASGVPSRFSGSGSGTDFTLTISSLQPEDFATYYCQSSYGNYGDFGTGTKVTVLGGGGGSGGGGSGGGGSGGGGSQVQLQESGPGLVKPSETLSLTCKVSGFSFSNSYWICWIRQPPGKGLEWIGCTFVGSSDSTYYANWAKGRVTISVDSSKNQFSLKLSSVTAADTAVYYCARHPSDAVYGYANNLWGQGTLVTVSS
notes: IgG-scFv fusion, scFv on the heavy chain; also called Morrison-H

EC50 in ng/ml, CD137 activation, NFkB-luciferase Jurkat reporter assay, CHO-PD-L1 cells [7]: 5.75 ng/mL
EC50 in ng/ml, CD137 activation, NFkB-luciferase Jurkat reporter assay, HCC827 cells without IFNg [8]: 16.1 ng/mL
EC50 in ng/ml, CD137 activation, NFkB-luciferase Jurkat reporter assay, HCC827 cells stimulated with IFNg [9]: 11.9 ng/mL
max. activation (%), NF-kB reporter gene, CHO-PD-L1; HSA: no [10]: 219%
max. activation (%), NF-kB reporter gene, HCC827 +IFNg; HSA: no [10]: 154%
max. activation (%), NF-kB reporter gene, HCC827 -IFNg; HSA: no [10]: 123%
binding result [11]: binds
B2: PRO1123: 38-02-A04 sc05 IF scDb-i/33_03_G02 sc01 scDb-o (bispecific antibody)
chain: DIQMTQSPSSLSASVGDRVTITCQASQSINDYLAWYQQKPGKAPKLLIYKASTLASGVPSRFSGSGSGTDFTLTISSLQPEDFATYYCQQGYIITDIDNVFGTGTKVTVLGGGGGSQVQLQESGPGLVKPSETLSLTCKVSGFSFSNSYWICWVRQPPGKGLEWIGCTFVGSSDSTYYANWAKGRVTISVDSSKNQVSLKLSSVTAADTAVYFCARHPSDAVYGYANNLWGQGTLVTVSSGGGGSGGGGSGGGGSGGGGSIQMTQSPSSLSASVGDRVTITCQASQSINNVLAWYQQKPGKPPKLLIYRASTLASGVPSRFSGSGSGTDFTLTISSLQPEDFATYYCQSSYGNYGDFGTGTKVTVLGGGGGSQVQLQESGPGLVKPSETLSLTCKVSGFSFSSGYDMCWIRQPPGKGLEWIGCVVAGSVDITYYASWAKGRVTISVDSSKNQFSLKLSSVTAADTAVYYCARKDAYSDAFNLWGQGTLVTVSS
notes: scDb

EC50 in ng/ml, CD137 activation, NFkB-luciferase Jurkat reporter assay, CHO-PD-L1 cells [7]: 3.68 ng/mL
EC50 in ng/ml, CD137 activation, NFkB-luciferase Jurkat reporter assay, HCC827 cells without IFNg [8]: 5.62 ng/mL
EC50 in ng/ml, CD137 activation, NFkB-luciferase Jurkat reporter assay, HCC827 cells stimulated with IFNg [9]: 4.83 ng/mL
max. activation (%), NF-kB reporter gene, CHO-PD-L1; HSA: no [10]: 229%
max. activation (%), NF-kB reporter gene, HCC827 +IFNg; HSA: no [10]: 188%
max. activation (%), NF-kB reporter gene, HCC827 -IFNg; HSA: no [10]: 113%
binding result [11]: binds
B3: PRO1124: 38-02-A04 sc06 Full scDb-i/33_03_G02 sc01 scDb-o (bispecific antibody)
chain: DIQMTQSPSSLSASVGDRVTITCQASQSINDYLAWYQQKPGKAPKLLIYKASTLASGVPSRFSGSGSGTDFTLTISSLQPEDFATYYCQQGYIITDIDNVFGTGTKVTVLGGGGGSQVQLQESGPGLVKPSETLSLTCKASGFSFSNSYWICWVRQPPGKGLEWIGCTFVGSSDSTYYANWAKGRVTISKDSSKNQVSLKLSSVTAADTAVYFCARHPSDAVYGYANNLWGQGTLVTVSSGGGGSGGGGSGGGGSGGGGSLQMTQSPSSLSASVGDRVTITCQASQSINNVLAWYQQKPGKPPKLLIYRASTLASGVPSRFSGSGSGTDFTLTISSLQPEDFATYYCQSSYGNYGDFGTGTKVTVLGGGGGSQVQLQESGPGLVKPSETLSLTCKVSGFSFSSGYDMCWIRQPPGKGLEWIGCVVAGSVDITYYASWAKGRVTISVDSSKNQFSLKLSSVTAADTAVYYCARKDAYSDAFNLWGQGTLVTVSS
notes: scDb, STR graft of the CD137 domain

IC50 (ng/ml), neutralization of PD-L1/PD-1 interaction, NFAT-luciferase reporter gene assay [1]: 21.3 ng/mL
IC50 (biotinylated human PD-L1 [5]): 0.00405 µg/mL
IC50 (biotinylated human PD-L1 [6]): 0.00057 µg/mL
B4: PRO1013 (anti-PD-L1 scFv, CDR set of clone 37-20-B03 grafted on a VH1 framework) (scFv)
chain: DIQMTQSPSSLSASVGDRVTITCQASQSIGTYLAWYQQKPGKAPKLLIYRAFILASGVPSRFSGSGSGTDFTLTISSLQPEDFATYYCQSNFYSDSTTIGPNAFGTGTKVTVLGGGGGSGGGGSGGGGSGGGGSQVQLVQSGAEVKKPGASVKVSCKASGFSFNSDYWIYWVRQAPGQGLEWMGSIYGGSSGNTQYASWAQGRVTMTRDTSISTAYMELSSLRSEDTAVYYCARGYVDYGGATDLWGQGTLVTVSS

IC50 (ng/ml), neutralization of PD-L1/PD-1 interaction, NFAT-luciferase reporter gene assay [1]: 93.8 ng/mL
IC50 (biotinylated human PD-L1 [5]): 0.029 µg/mL
IC50 (biotinylated human PD-L1 [6]): 0.00454 µg/mL
B5: PRO1059: 33-03-G02 IgG1 LC with 38_02_A04 sc01 scFV, PD-L1/CD137(scFv) silent Morrison (bispecific antibody)
light: DIQMTQSPSSLSASVGDRVTITCQASQSINDYLAWYQQKPGKAPKLLIYKASTLASGVPSRFSGSGSGTDFTLTISSLQPEDFATYYCQQGYIITDIDNVFGTGTKVTVLGTVAAPSVFIFPPSDEQLKSGTASVVCLLNNFYPREAKVQWKVDNALQSGNSQESVTEQDSKDSTYSLSSTLTLSKADYEKHKVYACEVTHQGLSSPVTKSFNRGECGGGGSGGGGSIQMTQSPSSLSASVGDRVTITCQASQSINNVLAWYQQKPGKAPKLLIYRASTLASGVPSRFSGSGSGTDFTLTISSLQPEDFATYYCQSSYGNYGDFGTGTKVTVLGGGGGSGGGGSGGGGSGGGGSQVQLQESGPGLVKPSETLSLTCKVSGFSFSNSYWICWIRQPPGKGLEWIGCTFVGSSDSTYYANWAKGRVTISVDSSKNQFSLKLSSVTAADTAVYYCARHPSDAVYGYANNLWGQGTLVTVSS
heavy: QVQLQESGPGLVKPSETLSLTCKVSGFSFSSGYDMCWIRQPPGKGLEWIGCVVAGSVDITYYASWAKGRVTISVDSSKNQFSLKLSSVTAADTAVYYCARKDAYSDAFNLWGQGTLVTVSSASTKGPSVFPLAPSSKSTSGGTAALGCLVKDYFPEPVTVSWNSGALTSGVHTFPAVLQSSGLYSLSSVVTVPSSSLGTQTYICNVNHKPSNTKVDKRVEPKSCDKTHTCPPCPAPEAAGGPSVFLFPPKPKDTLMISRTPEVTCVVVDVSHEDPEVKFNWYVDGVEVHNAKTKPREEQYNSTYRVVSVLTVLHQDWLNGKEYKCKVSNKALGAPIEKTISKAKGQPREPQVYTLPPSREEMTKNQVSLTCLVKGFYPSDIAVEWESNGQPENNYKTTPPVLDSDGSFFLYSKLTVDKSRWQQGNVFSCSVMHEALHNHYTQKSLSLSPGK
notes: IgG-scFv fusion, scFv on the light chain; also called Morrison-L

IC50 (ng/ml), neutralization of PD-L1/PD-1 interaction, NFAT-luciferase reporter gene assay [1]: 42.9 ng/mL
IC50 (biotinylated human PD-L1 [5]): 0.0129 µg/mL
IC50 (biotinylated human PD-L1 [6]): 0.0034 µg/mL
B6: PRO830 (anti-PD-L1 scFv, CDR set of clone 33-03-G02 grafted on a VH4 framework) (scFv)
chain: DIQMTQSPSSLSASVGDRVTITCQASQSINDYLAWYQQKPGKAPKLLIYKASTLASGVPSRFSGSGSGTDFTLTISSLQPEDFATYYCQQGYIITDIDNVFGTGTKVTVLGGGGGSGGGGSGGGGSGGGGSQVQLQESGPGLVKPSETLSLTCKVSGFSFSSGYDMCWIRQPPGKGLEWIGCVVAGSVDITYYASWAKGRVTISVDSSKNQFSLKLSSVTAADTAVYYCARKDAYSDAFNLWGQGTLVTVSS

IC50 (ng/ml), neutralization of PD-L1/PD-1 interaction, NFAT-luciferase reporter gene assay, with HSA [1]: 275 ng/mL
max. activation (%), NF-kB reporter gene, CHO-PD-L1; HSA: yes, 24h [10]: 369%
binding result (human serum albumin): binds
B7: PRO963 (= PRO1051): 38_02_A04 sc01 scDb-i/33-03-G02 sc01 scDb-o/19-01-H04-sc03 scFv (other)
chain: DIQMTQSPSSLSASVGDRVTITCQASQSINDYLAWYQQKPGKAPKLLIYKASTLASGVPSRFSGSGSGTDFTLTISSLQPEDFATYYCQQGYIITDIDNVFGTGTKVTVLGGGGGSQVQLQESGPGLVKPSETLSLTCKVSGFSFSNSYWICWIRQPPGKGLEWIGCTFVGSSDSTYYANWAKGRVTISVDSSKNQFSLKLSSVTAADTAVYYCARHPSDAVYGYANNLWGQGTLVTVSSGGGGSGGGGSGGGGSGGGGSIQMTQSPSSLSASVGDRVTITCQASQSINNVLAWYQQKPGKAPKLLIYRASTLASGVPSRFSGSGSGTDFTLTISSLQPEDFATYYCQSSYGNYGDFGTGTKVTVLGGGGGSQVQLQESGPGLVKPSETLSLTCKVSGFSFSSGYDMCWIRQPPGKGLEWIGCVVAGSVDITYYASWAKGRVTISVDSSKNQFSLKLSSVTAADTAVYYCARKDAYSDAFNLWGQGTLVTVSSGGGGSGGGGSIQMTQSPSSLSASVGDRVTITCQSSESVYSNNQLSWYQQKPGQPPKLLIYDASDLASGVPSRFSGSGSGTDFTLTISSLQPEDFATYYCAGGFSSSSDTAFGGGTKLTVLGGGGGSGGGGSGGGGSGGGGSEVQLVESGGGLVQPGGSLRLSCAASGFSLSSNAMGWVRQAPGKGLEYIGIISVGGFTYYASWAKGRFTISRDNSKNTVYLQMNSLRAEDTATYFCARDRHGGDSSGAFYLWGQGTLVTVSS
notes: Trispecific scTriabody (scDb-scFv): PD-L1 x CD137 x serum albumin
